Measured values taken from patent US20240352070.

Target: T1, FRET substrate peptide KLRMKLPKP
T1 chain: KLRMKLPKP

B1: human cathepsin S wild-type, amino acids 17 to 331, C-terminal His-tag (CTSS-His) (protein)
chain: LPDSVDWREKGCVTEVKYQGSCGACWAFSAVGALEAQLKLKTGKLVSLSAQNLVDCSTEKYGNKGCNGGFMTTAFQYIIDNKGIDSDASYPYKAMDQKCQYDSKYRAATCSKYTELPYGREDVLKEAVANKGPVSVGVDARHPSFFLYRSGVYYEPSCTQNVNHGVLVVGYGDLNGKEYWLVKNSWGHNFGEEGYIRMARNKGNHCGIASFPSYPEI
With B1 the “cleavage in FRET assay” value was “validating the identified peptide by showing in a FRET assay that it is cleaved by cathepsin S”.
